Experiment [1] deals with T1, recombinant human TNFα (human, UniProt P01375 77-233, biotinylated (2:1 molar ratio of biotin to rhTNFα) in the SPR assays; 125I-labeled in the receptor binding assays).
T1 construct: also called rhTNFα; rhTNF
As to the kind of experiment: SPR (BIAcore), scFv over biotinylated rhTNFα. Background: In SPR one partner is held on a chip, and binding of the other changes the refractive index at the surface.

Experiment [2] concerns the target T1, recombinant human TNFα. As to the kind of experiment: SPR (BIAcore), scFv over biotinylated rhTNFα. This is another data set of the same source.

The values below come from patent publication US20130115224A1 (published 2013).

Numbering of substitutions follows the chain as printed.

What is called koff is the first-order rate constant of dissociation.

T1 sequence (P01375 77-233 limits assumed): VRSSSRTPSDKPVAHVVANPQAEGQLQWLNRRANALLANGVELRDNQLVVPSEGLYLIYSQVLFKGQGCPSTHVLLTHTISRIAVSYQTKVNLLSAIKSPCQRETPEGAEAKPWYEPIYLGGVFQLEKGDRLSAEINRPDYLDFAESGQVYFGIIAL

B1: 3C-H2 / LOE7 scFv (scFv, V domains shown)
VH: QVQLVESGGGLVQPGRSLRLSCAASGFTFDDYAMHWVRQAPGKGLDWVSAITWNSGHIDYADSVEGRFAVSRDNAKNALYLQMNSLRPEDTAVYYCAKASYLSTASSLEYWGQGTLVTVSS
VL: not shown
In the case of B1, the “fold faster off rate than with the D2E7 VH CDR3” value in experiment [1] was determined as 3 fold. In addition, in experiment [2], the koff was 0.0015 s⁻¹.

B2: 2SD4 VH / VLLOE5 scFv (scFv, V domains shown)
VH: B1 VH with A97T, A105S, E109D, Y110N
VL: DIQMTQSPSSLSASIGDRVTITCRASQGIRNYLAWYQQKPGKAPKLLIYAASTLQSGVPSRFSGSGSGTDFTLTISSLQPEDVATYYCQKYNSAPYYFGQGTKVEIK
Regarding B2, the koff in experiment [2] is 0.0116 s⁻¹.
